These results are taken from US20250319180A1 (BLUEFIN BIOMEDICINE, published 2025).

In assay [1] the target is T1, human LY6H, endogenous on cancer cell lines (H446, DMS79, H526, MOLT3, KE-37) (human, UniProt O94772 26-115).
T1 construct: Endogenous protein on human SCLC and T-ALL cell lines
T1 sequence (looked up): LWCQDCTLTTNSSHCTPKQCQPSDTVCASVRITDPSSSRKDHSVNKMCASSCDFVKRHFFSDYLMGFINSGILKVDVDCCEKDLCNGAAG
The experiment in a line: flow cytometry, antibody titrated 0.1-100 nM on H526 cells, MFI; column H526_EC50 (nM); value lies above the highest concentration tested, curve has no plateau. As to the method:
(§1) The assay uses 3-5 fold dilutions (from 100 nM to 0.1 nM) of antibody of a stock antibody concentration (100 nM) in binding buffer. Serial diluted antibodies were incubated with live cells on ice for 30 minutes, after a brief wash, cells were incubated with Alexa Fluro® 488-conjugated anti-human IgG secondary antibody @1:100, or 15 μg/ml (709-546-149, Jackson ImmunoResearch). Acquisition of the MFI (Median Fluorescent Intensity) was performed on a MACSQuant® Flow Cytometers (Miltenyi Biotec). EC₅₀ was calculated using Dose-response EC₅₀ shift by global fitting from GraphPad Prism.
(§2) An estimate of affinity is interpreted from one-half the concentration at which antibody binding first achieves saturation.

Assay [2] concerns the target T1, human LY6H, endogenous on cancer cell …. The assay can be described thus: flow cytometry, antibody titrated 0.1-100 nM on H526 cells, MFI; column H526_EC50 (nM); curve has no plateau at 100 nM. The protocol: as §1, §2
For orientation: Flow cytometry measures light scatter and fluorescence of single cells or particles in a stream.

Assay [3] has the same target. The experiment in a line: flow cytometry, antibody titrated 0.1-100 nM on MOLT3 cells, MFI; upper panel and table, column MOLT3_EC50 (nM). As to the method: as §1, §2
In assay [4] the target is T2, recombinant human LY6H-ECD (C-terminal histidine tag) (human, UniProt O94772 26-115).
T2 construct: The ectodomain was cloned by PCR with a non-native signal peptide and a C-terminal histidine tag; also called recombinant LY6H; hLY6H-ECD; not shown: C-terminal histidine tag
T2 sequence (looked up): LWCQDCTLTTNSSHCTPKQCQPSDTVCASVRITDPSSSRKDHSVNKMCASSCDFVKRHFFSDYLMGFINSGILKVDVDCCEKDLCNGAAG
The assay can be described thus: Octet Red BLI, antibody on Protein A biosensor, recombinant human LY6H in solution. The protocol:
Affinity: The affinity of antibodies to various recombinant LY6H protein was determined on an Octet Red™ instrument. After loading reagents into a 96-well plate, the Octet Red with Protein A-conjugated biosensors was programmed as follows: 30 seconds for baseline #1; 120 seconds to immobilize the antibody; 30 seconds for baseline #2; 300 seconds for association of antibody to recombinant LY6H; and 300-600 seconds for dissociation of recombinant LY6H from the antibody.
In general terms: Biolayer interferometry detects binding as a change in optical thickness at a sensor tip.

Assay [5] has as its target T1, human LY6H, endogenous on cancer cell …. The assay can be described thus: flow cytometry, antibody titrated 0.1-100 nM on DMS79 cells, MFI; upper panel and table, column DMS79_EC50 (nM). As to the method: as §1, §2
Assay [6] has the same target. The experiment in a line: flow cytometry, antibody titrated 0.1-100 nM on H446 cells, MFI; column H446_EC50 (nM). As to the method: as §1, §2
Assay [7] shares this target. The experiment in a line: flow cytometry, antibody titrated 0.1-100 nM on MOLT3 cells, MFI; lower panel and table, column MOLT3_EC50 (nM). The protocol: as §1, §2
The target is the same in assay [8]. The experiment in a line: flow cytometry, antibody titrated 0.1-100 nM on DMS79 cells, MFI; lower panel and table, column DMS79_EC50 (nM). As to the method: as §1, §2
The target is the same in assay [9]. The assay can be described thus: flow cytometry, antibody titrated 0.1-100 nM on H526 cells, MFI; column H526_EC50 (nM). The protocol:
as §1, §2

In assay [10] the target is T3, Macaca fascicularis LY6H expressed on 293T cells (plasmid BBP 492/598, M1-P140 plus Myc-DDK) (Macaca fascicularis, UniProt Q4R5M8 26-115).
T3 construct: Full construct as encoded; also called monkey LY6H; not shown: Myc-DDK tag at the C-terminus
T3 sequence: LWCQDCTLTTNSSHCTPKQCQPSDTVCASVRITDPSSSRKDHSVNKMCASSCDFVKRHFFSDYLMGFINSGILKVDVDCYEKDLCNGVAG
The experiment in a line: flow cytometry on 293 cells expressing Macaca fascicularis LY6H (293-neo-cyno LY6H); antibody 1 ug/ml per paragraph 484; solid histogram = hIgG1 control [cont.]. The protocol: Staining for flow cytometry was performed in 1× cold PBS with 0.5% BSA.

In assay [11] the target is T3, Macaca fascicularis LY6H expressed on …. The assay can be described thus: on-cell affinity by flow cytometry: unconjugated 12G7 (0.05-100 nM) competes with 1 nM PE-conjugated 12G7 on 293T cells expressing Macaca fascicularis LY6H (per legend paragraph 131); table row 293T-mmLY6H. The protocol: Serial diluted antibodies were incubated with 293 cells expressing either human or Macaca fascicularis on ice for 4 hours, after a brief wash. Acquisition of the MFI (Median Fluorescent Intensity) was performed on a MACSQuant® Flow Cytometers (Miltenyi Biotec). On cell affinity (Kd) was calculated using dose-response EC50 shift by global fitting from GraphPad Prism™.
Serial diluted antibodies were incubated with live cells on ice for 4 hours, after a brief wash. Acquisition of the MFI (Median Fluorescent Intensity) was performed on a MACSQuant® Flow Cytometers (Miltenyi Biotec). On cell affinity (Kd) was calculated using Dose-response EC₅₀ shift by global fitting from GraphPad Prism™.

B1: 22A5_19A5 (antibody, V domains shown)
VH: QVQLVESGGGVVQPGRSLRLSCAASGFTFSSYGMHWVRQAPGKGLEWVAVIWYDGSNKYYADSVKGRFTISRDNSKNTLYLQMNSLRAEDTAVYYCARDLWFGESRGGMDVWGQGTTVTVSS
VL: not shown
notes: human anti-LY6H antibody
B1: in assay [1], the EC50 (as a rule, the concentration that produces a half-maximal response) stood at 122 nM.

B2: 11D9 (antibody, V domains shown)
VH: QVQLQESGPGLVKPSGTLSLTCTVSGGSISSSSWWSWVRLPPGKGLEWIGEIYHSGSTNYNPSLKSRVTISVDKSKNQFSLKLSSVTAADTAVYYCGGVRGVVMAFDIWGQGTMVTVSS
VL: not shown
notes: also called 11D9_19D5
In the case of B2, the EC50 in assay [2] was 13.2 nM; in [3], 1.4 nM; in [5] it was 2.2 nM; in assay [6], 2.6 nM. Moreover, the Kd (commonly the concentration at which binding is half-saturated) in [4] is 31 nM.

B3: 23F3 (antibody, V domains shown)
VH: QVQLQESGPGLVKPSGTLSLTCAVSGGSISSSNWWSWVRQPPGKGLEWIGEIYHSGSTNYNPSLKSRVTISVDKSKNQFSLKLSSVTAADTAVYYCARVDILTGGNFDYWGQGTLVTVSS
VL: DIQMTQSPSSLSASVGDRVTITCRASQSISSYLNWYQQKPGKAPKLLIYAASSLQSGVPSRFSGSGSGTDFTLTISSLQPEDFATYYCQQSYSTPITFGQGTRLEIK
notes: also called 23F3_19B2
As for B3, the EC50 in assay [2] stood at 73.5 nM; in [3] it was 5.4 nM; in assay [5], 17.8 nM; in assay [6], 2.3 nM.

B4: 2B11 (antibody, V domains shown)
VH: QVQLVESGGGVVQPGRSLRLSCAASGFTFSNYGMHWVRQAPGKGLEWVAVIWYDGSNKYYADSVKGRFTISRDNSKNTLYLQMNSLRTEDTAVYYCARSIVVVTATLDYWGQGTLVTVSS
VL: not shown
notes: also called 2B11_25D1
With B4, the EC50 in [7] amounted to 3.9 nM; in assay [8] it was 3.4 nM.

B5: 34H6 (antibody, V domains shown)
VH: QVQLVESGGGVVQPGRSLRLSCAASGFTFSSYGMHWVRQAPGKGLEWVAVIWYDGSNKYYADSVKGRFTISRDNSKNTLYLQMNSLRAEDTAVYYCARSIVVVTGFGDYWGQGTLVTVSS
VL: not shown
notes: also called 34H6_20A1
In the case of B5, the half-maximal effective concentration (EC50) in assay [3] came to 0.7 nM; in assay [9] it was 2.9 nM; in assay [5] it was 0.9 nM; in assay [6], 2.4 nM.

B6: 6D11 (antibody, V domains shown)
VH: QVQLQQWGAGLFKPSETLSLTCAVYGGSFSGSLWSWIRQPPGKGLEWIGEINHSGSTNYTPSLKSRVTISVDTSKNQFSLKLTSVTAADTAVYYCARGRHIVVVTAIHSPFDYWGQGTLVTVSS
VL: DIQMTQSPSSLSASVGDRVTITCRASQGISNYLAWYQQKPGKVPKLLIFAASTLQSGVPSRFSGSGSGTDFTLTISSLQPEDVATYYCQKYNSAPRTFGQGTKLEIK
notes: Recombinant antibody made in CHO cells; also called 6D11_25D6
Take B6: in assay [10], the binding result was “binds”. Also, the Kd in assay [4] is 22 nM. Besides, the results for the EC50 in [7] and in [8] were 0.6 nM and 1.3 nM, respectively.

B7: 10B10 (antibody, V domains shown)
VH: QVQLQQWGAGLLKPSETLSLTCAVYGGSFSGYYWHWIRQPPGKGLEWIGEINHSESTKYNPSLKSRVTISVDTSKNQFSLKLSSVTGADTAVYYCARGQHIVVVTDSLGDYWGQGTLVTVSS
VL: DIQMTQSPSSLSASVGDRVTITCRASQGISNYLAWYQQKPGKVPKLLIYAASTLQSGVPSRFSGSGSGTDFTLTISSLQPEDVATYYCQKYNSAPRTFGQGTKLEIK
notes: also called 10B10_25A1
Take B7: the dissociation constant Kd in assay [4] is 47 nM. In addition, the EC50 in assay [7] is 0.7 nM; in assay [8], 2 nM.

B8: 12G7 (antibody, V domains shown)
VH: QVQLQQWGAGLLKPSETLSLTCAVYGGSFSGYYWSWIRQPPGKGLEWIGEINHSGSTYYNPSLKSRVTMSVDTSKNQFSLKLSSVTAADTAVYYCAKRWELGAFDIWGQGTMVTVSS
VL: DIQMTQSPSSLSASVGDRVTITCRASQGISNYLAWYQQKPGKVPKLLIYAASTLQSGVPSRFSGSGSGTDFTLTISSLQPEDVATYYCQKYNSAPRTFGQGTKLEIK
notes: Recombinant antibody from H2L2 mice (human variable regions), made in CHO cells, purified on Protein A and detected with anti-human IgG; also called 12G7_19A2; anti-LY6H antibody (12G7)
For B8, the EC50 in assay [3] is 0.7 nM; in assay [7] it was 0.8 nM; in [9] it was 1.9 nM; in assay [5], 2.4 nM; in assay [6], 3 nM; in assay [8] it was 1.9 nM. For the same molecule, the Kd in [4] turned out to be 4 nM; in assay [11], 14.5 nM.

B9: 12G7-S54A (antibody, V domains shown)
VH: QVQLQQWGAGLLKPSETLSLTCAVYGGSFSGYYWSWIRQPPGKGLEWIGEINHAGSTYYNPSLKSRVTMSVDTSKNQFSLKLSSVTAADTAVYYCAKRWELGAFDIWGQGTMVTVSS
VL: DIQMTQSPSSLSASVGDRVTITCRASQGISNYLAWYQQKPGKVPKLLIYAASTLQSGVPSRFSGSGSGTDFTLTISSLQPEDVATYYCQKYNSAPRTFGQGTKLEIK
Turning to B9, the Kd in [4] is 4 nM.

B10: 10B10-S54A (antibody, V domains shown)
VH: QVQLQQWGAGLLKPSETLSLTCAVYGGSFSGYYWHWIRQPPGKGLEWIGEINHAESTKYNPSLKSRVTISVDTSKNQFSLKLSSVTGADTAVYYCARGQHIVVVTDSLGDYWGQGTLVTVSS
VL: DIQMTQSPSSLSASVGDRVTITCRASQGISNYLAWYQQKPGKVPKLLIYAASTLQSGVPSRFSGSGSGTDFTLTISSLQPEDVATYYCQKYNSAPRTFGQGTKLEIK
For the molecule B10, the Kd in [4] was determined as 42 nM.

B11: 6D11-41B4 (antibody, V domains shown)
VH: QVQLQQWGAGLFKPSETLSLTCAVYGGSFSGSLWSWIRQPPGKGLEWIGEINHAGSTQYTPSLKSRVTISVDTSKNQFSLKLTSVTAADTAVYYCARGRHIVVVTAIHSPFDYWGQGTLVTVSS
VL: DIQMTQSPSSLSASVGDRVTITCRASQGISNYLAWYQQKPGKVPKLLIFAASTLQSGVPSRFSGSGSGTDFTLTISSLQPEDVATYYCQKYNSAPRTFGQGTKLEIK
Consider B11, for which the Kd in assay [4] is 25 nM.
